Here are results for 6 molecules from US11479791B2, “Tools and methods for expression of membrane proteins” (VIB VZW, priority 2012, dated 2022).

Assay [1] addresses T1, human CXCR4 receptor (hCXCR4Rho1D4) (Homo sapiens, UniProt P61073).
T1 construct: expressed in transfected cells; host or cells: Pichia pastoris GS115
Put plainly: hCXCR4-Nb co-expression in P. pastoris GS115; anti-Rho1D4 immunoblot of membrane protein, quantified by Odyssey software. It counts as cell-based. The following applies: for change of hCXCR4 receptor expression upon Nb co-expression (in words): immunoblot, versus GS115hCXCR4 clone without Nb co-expression. The method, then:
An hCXCR4 expressing Pichia clone was transformed with the four linearized Nanobody expressing vectors as described before. Twenty-four positive clones (six per Nb) were analyzed for protein expression. Growth conditions and membrane protein sample preparations were done as previously described. Equal amounts of total membrane protein (determined by a BCA assay) of induced P. pastoris GS115 clones, expressing only the human CXCR4 receptor, or in combination with one of the anti-hCXCR4 Nanobodies, were run on a 12% SDS-PAGE gel and blotted on a nitrocellulose membrane. The blot was developed with a primary mouse anti-Rho1D4 monoclonal antibody and a secondary Dylight (800 nm) goat anti-mouse IgG on an LI-COR odyssey system. […] The quantification was performed by the Odyssey software by measuring relative fluorescent signals (Table 3).
An hCXCR4 expressing Pichia clone was transformed with the linearized Nanobody expressing vector as described before. Three positive clones were analyzed for protein expression. Growth conditions and membrane protein sample preparations were done as previously described. Equal amounts of total membrane protein (determined by a BCA assay) of induced P. pastoris GS115 clones, expressing only the human CXCR4 receptor, or in combination with a anti-hCXCR4 Nanobody (NbCA4142), or in combination with the negative control Nanobody (NbCA4910), were run on a 12% SDS-PAGE gel and blotted on a nitrocellulose membrane. The blot was developed with a primary mouse anti-Rho1D4 monoclonal antibody and a secondary Dylight (800 nm) goat anti-mouse IgG on an LI-COR odyssey system. For the hCXCR4-specific Nb co-expressing clone we detect more of the anti-Rho1D4 immunoreactive membrane protein band compared to the GS115hCXCR4 clone without Nb co-expression. […] Exact quantification has been calculated by the Odyssey software by measuring relative fluorescent signals (Table 4). It can, thus, be concluded that the increase in receptor expression can be attributed to the Nanobody-specific interaction with the receptor.
Stable positive clones were typically grown in 2 ml (24-well format) or 12.5 ml (shake-flasks) BMGY medium for 48 hours (250 rpm; 28° C.). The cells were harvested by centrifugation and resuspended in the same amount of BMMY medium (1% methanol; 0.5% of methanol was added after 12 hours to maintain induction). After 24 hours the cells were harvested for membrane protein preparations (analysis of hCXCR4 expression and intracellular Nb retention) and the supernatant was used for analysis of extracellular protein expression on SDS-PAGE (Nanobodies).
The cell pellet corresponding to 1 ml of saturated yeast culture (OD600 60-80) was suspended in 1 ml of PBS+Protease inhibitor (Roche). Together with 200 μl of acid washed glass beads, the samples were vortexed heavily at 4° C. for 2×5 minutes. Glass beads, cell debris and intact cells were removed by centrifugation at 2000 rpm (5 min; 4° C.). The supernatant was kept as such or was centrifuged for 45 minutes at 13,000 rpm in a desktop centrifuge at 4° C. The supernatant, cytosolic fraction was discarded and the pellet fraction was re-dissolved in the same amount of fresh PBS+PI by sonication until a homogenous sample was obtained.
Total membrane protein concentration was determined by the BCA protein assay kit (Pierce, Thermo Scientific).
Protein samples were analyzed by SDS-poly-acrylamide gel electrophoresis, according to the Laemmli (Laemmli et al., 1970, Nature, 227:680) or the Tricine method (Schägger et al., 2006, Nat. Protoc. 1:16-22). Before loading on gel, the samples were mixed with 5× Laemmli (60 mM Tris-HCl pH 6.8; 2% SDS, 10% glycerol, 5% β-ME; 0.01% bromophenol blue) and heated for 10 minutes at 95° C. (only the ECM samples, not the membrane protein preparations). Prestained protein markers in the range of 10-250 kDa, Precision Plus protein standards (Bio-Rad), were used as molecular standards. […]
(In general: Immunoblotting shows a protein as a band on a membrane.)

A further assay concerns the target T2, β2-adrenergic receptor (Mesocricetus auratus, UniProt P04274).
T2 construct: expressed in transfected cells
Put plainly: Purification of β2AR-Nanobody complex from HEK293S cells by Ni2+ affinity chromatography. Particulars: upon the addition of the antagonist alprenolol hydrochloride; FIG. 10. It counts as binding. From the text:
The same technique as in Example 4 can be used using a Nanobody that binds an intracellular epitope of the membrane protein. Nanobody CA2780 (amino acid sequence: SEQ ID NO:5; Nucleotide sequence: SEQ ID NO:23) is an example of a Nanobody that binds an intracellular epitope of the β2-adrenergic receptor and that stabilizes the receptor in its active conformation (Rasmussen et al., 2011, Nature 469: 175). We transformed a HEK293 cell line that has a stable inducible β2AR expression with the pCAGGSNbCA2780-plasmid (see Material and Methods section) for transient expression. This Nanobody is not fused to a secretion signal and, therefore, resides in the cytosol upon expression, to allow interaction with the intracellular side of the membrane protein. Nanobody CA2780 has a hexaHis-tag and can, therefore, be purified using Ni^2+ affinity chromatography. […] In this way we strongly enrich for the receptor fraction that is in a well-folded state, because the Nanobody can only bind the receptor when it is in its native fold. This step strongly increases homogeneity in a membrane protein sample going to f.e. crystallization trials. If necessary, a subsequent purification using anti-Rho1D4 affinity chromatography can further enrich the sample for the receptor. […]

The next assay has as its target T3, hCXCR4 receptor (Homo sapiens, UniProt P61073).
T3 construct: made in house; host or cells: Pichia pastoris GS115 co-expressing clone
Put plainly: Purification of hCXCR4-Nanobody complex from co-expressing P. pastoris clone by Ni2+ affinity chromatography. The following applies: DDM-solubilized membrane protein of co-expressing clone; FIG. 9. It counts as binding. From the text: In this way we only purify the receptor fraction that is in a well-folded state, because the Nanobody can only bind the receptor when it is in its native fold. This step strongly increases homogeneity in a membrane protein sample which is useful, for example, for crystallization. […] In case an even more pure sample is required, an extra step of affinity chromatography can be performed using an anti-Rho1D4 affinity matrix, which targets the hCXCR4 part of the complex.
The cell pellet corresponding to 1 L of saturated yeast culture (OD600 60-80) was resuspended in a 1:1 (w/v) ratio of buffer A (1×PBS+Protease inhibitors). Together with 190 g of glass beads, the suspension was brought in the precooled DYNO®-MILL mixing chamber and cells were crushed for 5 minutes. The lysate was centrifuged for 10 minutes at 2,000 rpm (Sorvall F10S-6X500Y rotor) at 4° C. to remove cell debris and intact cells. The supernatant was centrifuged for an hour at 13,000 rpm (Sorvall F10S-6X500Y rotor) at 4° C. to pellet the membrane proteins. The pellet was resuspended in 10 ml buffer A with 1% DDM (n-Dodecyl β-D-maltoside) and put on a rotor for three hours at 4° C. to allow membrane protein solubilization. After solubilization, the solution is centrifuged for one hour at 13,000 rpm (Sorvall SS-34 rotor) at 4° C. to remove unsolubilized membrane proteins. […]

Setting [2] is: Table 3, anti-Rho1D4 immunoreactive hCXCR4 band, average of two independent experiments.
Where [3] appears, read: Table 3, corrected for GS115 negative control.
The mark [4] stands for this setting: Table 4, co-expressing clone cl1.
The mark [5] stands for this setting: Table 4, co-expressing clone cl2.
The mark [6] stands for this setting: Table 4, co-expressing clone cl3.

T1 sequence (P61073 with tags, fused parts or gaps isoform P61073-2): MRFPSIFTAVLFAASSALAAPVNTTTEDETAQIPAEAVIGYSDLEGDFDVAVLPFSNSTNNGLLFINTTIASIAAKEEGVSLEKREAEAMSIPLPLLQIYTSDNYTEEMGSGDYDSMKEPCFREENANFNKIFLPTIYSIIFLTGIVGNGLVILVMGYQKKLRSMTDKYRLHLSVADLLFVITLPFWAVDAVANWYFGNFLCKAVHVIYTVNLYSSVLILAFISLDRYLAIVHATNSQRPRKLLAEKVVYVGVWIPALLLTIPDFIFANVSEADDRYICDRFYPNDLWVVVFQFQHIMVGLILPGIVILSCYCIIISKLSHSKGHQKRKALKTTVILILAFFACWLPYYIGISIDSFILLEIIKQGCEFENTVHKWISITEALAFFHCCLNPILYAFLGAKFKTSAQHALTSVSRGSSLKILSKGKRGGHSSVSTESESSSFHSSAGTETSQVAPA
T3 sequence (P61073 with tags, fused parts or gaps isoform P61073-2): as above
T2 sequence (P04274 whole entry): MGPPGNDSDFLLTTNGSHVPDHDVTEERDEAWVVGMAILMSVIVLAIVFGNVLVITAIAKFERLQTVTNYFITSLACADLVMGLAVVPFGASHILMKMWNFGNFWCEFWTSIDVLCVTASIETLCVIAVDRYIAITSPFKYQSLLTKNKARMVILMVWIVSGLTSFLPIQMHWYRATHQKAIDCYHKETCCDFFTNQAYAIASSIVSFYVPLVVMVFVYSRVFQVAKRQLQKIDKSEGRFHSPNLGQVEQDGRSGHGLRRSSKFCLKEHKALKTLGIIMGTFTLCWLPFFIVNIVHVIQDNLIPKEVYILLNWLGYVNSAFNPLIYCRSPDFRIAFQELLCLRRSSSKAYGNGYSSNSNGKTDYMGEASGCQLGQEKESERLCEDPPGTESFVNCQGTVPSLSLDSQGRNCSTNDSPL

B1: NbCA4143: Nanobody directed against the extracellular side of the human CXCR4 receptor, SEQ ID NO:3, His6 tag (protein, listed as Lama glama)
VHH: QVQLQESGGGLVQPGGSLRLSCAASGFTFSSYAMSWVRQAPGKGLEWVSTINSGGRSANYADSVKGRLTISRDNAKNTLHLQMNSLKPEDTALYYCARPRSVSRNYVPLGYDYLGQGTQVTVSSHHHHHH
modifications: His6 tag
On to B1, for which the Fluorescent units in assay [1] (setting [2]) worked out at 41.06 fluorescent units. In assay [1] (setting [3]), the Blank corrected amounted to 37.72 fluorescent units.

B2: NbCA4140: Nanobody directed against the extracellular side of the human CXCR4 receptor, SEQ ID NO:1, His6 tag (protein, listed as Lama glama)
VHH: QVQLQESGGGLVQPGGSLRLSCAASGSIFSINAMGWYRQAPGKQRELVAAITSGGSTNYADSVKGRFTISRDNAENTVYLQMNNLKPEDTAVYSCNAEGTSGSSRYRRRYEYWGKGTQVTVSSHHHHHH
modifications: His6 tag
As to B2, the Fluorescent units in assay [1] (setting [2]) is reported as 39.95 fluorescent units. Moreover, in assay [1] (setting [3]), the Blank corrected is 36.61 fluorescent units.

B3: NbCA4500: Nanobody directed against the extracellular side of the human CXCR4 receptor, SEQ ID NO:4, His6 tag (protein, listed as Lama glama)
VHH: QVQLQESGGGLVQAGGSLRLSCAASGSTSGIIAMGWYRQAPGKQRELVARISSGSSTNYADSVKGRFTVSRDNAKNTVYLQMNSLKPEDTAVYYCNAVRRGYRNDYNSWGQGTQVTVSSHHHHHH
modifications: His6 tag
For B3, in assay [1] (setting [2]), the Fluorescent units came out at 21.59 fluorescent units. Also, the Blank corrected in assay [1] (setting [3]) stood at 18.25 fluorescent units. Further, in assay [1], the “change of hCXCR4 receptor expression upon Nb co-expression (in words)” value (“change” below) is “slight increase”.

B4: NbCA2780: Nanobody that binds an intracellular epitope of the β2-adrenergic receptor and stabilizes its active conformation (Rasmussen et al., 2011), SEQ ID NO:5 (protein, listed as Lama glama)
VHH: MEVQLQESGGGLVQAGGSLRLSCAASGSIFSINTMGWYRQAPGKQRELVAAIHSGGSTNYANSVKGRFTISRDNAANTVYLQMNSLKPEDTAVYYCNVKDYGAVLYEYDYWGQGTQVTVSSAAAHHHHHH
In the case of B4, in the assay with β2-adrenergic receptor, the “interaction between receptor and Nanobody (complex purified by Ni2+ affinity chromatography)” value is listed as “strong interaction”.

B5: NbCA4142: Nanobody directed against the extracellular side of the human CXCR4 receptor, SEQ ID NO:2, His6 tag (protein, listed as Lama glama)
VHH: QVQLQESGGGLVRTGGSLRLSCAGSGSFFSINPMGWYRQAPGQQRELVATITGSGSTNYADSVKGRFTISRDNAKNTLYLQMNSLKPEDTAVYYCNAGYFDRIGRRYDRWGQGTQVTVSSHHHHHH
modifications: His6 tag
In the case of B5, in the assay with hCXCR4 receptor, the “retention of the receptor on Ni2+ affinity column via hexaHis-tagged Nanobody” value is “strong retention of the receptor”. Further, the Fluorescent units in assay [1] (setting [2]) came to 35.81 fluorescent units; in assay [1] (Table 4, control experiment), 32.76 fluorescent units. Also, the Blank corrected is listed as 32.47 fluorescent units in assay [1] (setting [3]) and 30.35 fluorescent units in assay [1] (Table 4, control experiment, corrected for GS115 negative control). In addition, the “change” value in assay [1] is listed as “more”.

B6: NbCA4910: negative control Nanobody which does not recognize the hCXCR4, SEQ ID NO:6 (protein, listed as Lama glama)
VHH: QVQLVESGGGLVQPGGSLRLSCAASGSFRSIVSMAWYRQAPGKQRELVASSNSGGSTNYADSVKGRFTISRDNAKNTVYLQMNSLKPEDTAVYWCNVQNRLPGFDAFSGRSIAETYWGQGTQVTVSSAAAHHHHHH
As for B6, the Blank corrected worked out at 6.56 fluorescent units in assay [1] (setting [4]), 17.89 fluorescent units in assay [1] (setting [5]) and 19.49 fluorescent units in assay [1] (setting [6]). Further, the Fluorescent units came to 8.97 fluorescent units in assay [1] (setting [4]), 20.30 fluorescent units in assay [1] (setting [5]) and 21.90 fluorescent units in assay [1] (setting [6]). Moreover, the “change” value in assay [1] was “no increase in the receptor expression”.
